Our source for the Kd and binding signal values is PMC10578477, “Biochemical and genetic dissection of the RNA-binding surface of the FinO domain of Escherichia coli ProQ”.

The target of data set [1] is T1, ProQ NTD WT (FinO domain) (Escherichia coli, UniProt P45577 1-130).
T1 sequence: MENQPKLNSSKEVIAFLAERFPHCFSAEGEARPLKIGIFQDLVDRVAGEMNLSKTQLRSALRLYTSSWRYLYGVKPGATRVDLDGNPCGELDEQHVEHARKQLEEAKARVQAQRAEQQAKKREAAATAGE
Kind of data set: EMSA. Particulars: EMSA: 25 mM Tris pH 7.5, 150 mM NaCl, 5% glycerol, 1 mM MgCl2, 1 nM 32P-RNA, 30 min RT; microplates pretreated with 0.0025% BSA; 6% gel in 0.5x TBE at 4 C. (In EMSA bound probe runs differently from free probe, usually more slowly.)

Data set [2] deals with T1, ProQ NTD WT (FinO domain). Kind of data set: EMSA; EMSA: 25 mM Tris pH 7.5, 150 mM NaCl, 5% glycerol, 1 mM MgCl2, 1 nM 32P-RNA, 30 min RT; microplates pretreated with 0.0025% BSA; 6% gel in 0.5x TBE at 4 C. Particulars: protein: recombinant, tags: His6-TEV removed, N-terminal Ser remains, label: 5'-32P.
The target of data set [3] is T1, ProQ NTD WT (FinO domain). Kind of data set: EMSA; range for five RNAs; EMSA: 25 mM Tris pH 7.5, 150 mM NaCl, 5% glycerol, 1 mM MgCl2, 1 nM 32P-RNA, 30 min RT; microplates pretreated with 0.0025% BSA; 6% gel in 0.5x TBE at 4 C. Conditions: protein: recombinant; tags: His6-TEV removed, N-terminal Ser remains; label: 5'-32P; terminator hairpin, 8 U 3' tail.

A word on the Kd: it is a measure of binding affinity in units of concentration. In the case of RybB, in data set [1], the Kd stood at 26 nM.

As to gapA-3', in data set [1], the Kd is 14 nM.

B1: cspE-mini (structured_RNA)
RNA: GGAAUUCGGAAGGCGCUUAAUCAGCGCCUUUUUUUU
In the case of B1, the binding signal in data set [2] (hairpin with 5' and 3' single-stranded regions) is ~1 fold weaker Kd than cspE-3'.

B2: cspE-mini-3'-6U (structured_RNA)
RNA: GGAAUUCGGAAGGCGCUUAAUCAGCGCCUUUUUU
For B2, the binding signal in data set [2] (hairpin, 6 U tail (2 predicted single-stranded)) is ~2.5 fold weaker Kd than cspE-mini.

B3: cspE-3' (structured_RNA)
RNA: GUAAGAUACGUCAGCAAGAAUUCAAAACCCGCUUAAUCAGCGGGUUUUUUUU
For the molecule B3, in data set [3], the dissociation constant Kd is about 6.33 nM.
